Measurements: the supplement of paper PMC9170038

Tested on: MS2 coat protein
Test: apparent KD of MS2 coat protein; designed switch direction (-1 OFF switch, 1 ON switch): -1; higher = weaker reporter binding
Method in brief: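 Transcription of designed RNA switches on Illumina chips was done by stalled E. coli RNA polymerase. SNAP-549-labelled MS2 coat protein was then titrated in doubling steps from 0.7 or 1.5 nM to 3 µM, with steps of 0.8–1.5 h at the lowest and 10–20 min at the highest concentration. The per-design median over clusters of curve-fitted normalised fluorescence is reported as apparent KD.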

[1] = Eterna round: R95, input ligand: FMN 200 uM
[2] = Eterna round: R95, input ligand: microRNA oligo, concentration not stated
[3] = Eterna round: R95, input ligand: none
[4] = input ligand: microRNA oligo, concentration not stated

| Sequence | apparent KD of MS2 coat protein [1] [nM] | apparent KD of MS2 coat protein [2] [nM] | apparent KD of MS2 coat protein [3] [nM] | apparent KD of MS2 coat protein (input ligand: FMN 200 uM) [nM] | apparent KD of MS2 coat protein [4] [nM] | apparent KD of MS2 coat protein (input ligand: none) [nM] |
| --- | --- | --- | --- | --- | --- | --- |
| GAUGAGGUAGGAUAUACGAGAAGAUAGGGUAGAGAGAGAACACAUGAGGAUCACCCAUGUAGAAGGACCAGUAG [Mat - Exclusion 2 - Mod of my Tesla design - D74] (puzzle: Exclusion 2) | 48.9 | 21.1 | 21.4 |  |  |  |
| GAGAAACAUGAGGAUCACCCAUGUGAGGAUAUGCGUACGUUGUCCGUAGGCGACGUGCGCAGAAGGCGCAAAGG [Mat - Mod of JL D86] (puzzle: Exclusion 1) |  | 54.2 |  |  |  |  |
| GUAAAUCAUGUAGGAUAUGCGUGGCGAAGCUAUGCAGAAGGACAUGAGGAUCACCCAUGUGCUUCCGUCUGAGAACAGACGGAG [Mat - Exclusion NG 1 - Mod of JL - D28] (Eterna round: R96, puzzle: Exclusion NG 1) |  |  |  | 222 | 116 | 244 |
| GCCGUAAGUGUGAGGAUAUACCUAUGGAAACAUAGGUAGAAGGCACAUGAGGAUCACCCAUGUUCUCAAUCGGC [Mat - Exclusion 4 - Eli Mod - D5] (Eterna round: R97, puzzle: Brourd's mod of Exclusion 4) |  |  |  | 458 |  | 245 |
| CUGAGCUGAGGAUAUACAUGAGGAUCACCCAUGUGUUCCAGCUUGGGUACAGGCACAUGUAGAAGGCAGUUCGG [Mod of JL - ex3-3.35 Brourd mod] (puzzle: Exclusion 3) |  | 62 |  |  |  |  |
| GAAAACGCAGAGGAUAUUCCAGAUCUAAGCUGCGAAGAAGGCUGCACAUGAGGAUCACCCAUGUGGUCUUUAAA [Maoned] (puzzle: Exclusion 6) | 121 | 12.3 | 14.9 |  |  |  |
| AGCGCGUUCUAGGAUAUCCGGUGGGACACAUACGGAGAAGGAGAAACAUGAGGAUCACCCAUGUAUGGAGAUCG [Eternabot (L1) Solution 7] (Eterna round: R97, puzzle: Exclusion 6) |  |  |  | 309 |  | 102 |
| GUCUGAGCAGGAUAUACAUGAGGAUCACCCAUGUUGGUUCAGCGACGAUAGUCGCAAUGUAGAAGGGCUCAGAC [E3/9-D1] (Eterna round: R97, puzzle: Exclusion 3) |  |  |  | 73.5 |  | 258 |
| GAUGUUCGAGUUAGGAUAUGAAUCCAUACCGGACAUCAGAAGGAACUUGAGGAUCACCCAAGUGGGAAAGAAAU [Orzavera] (Eterna round: R97, puzzle: Brourd's mod of Exclusion 4) |  |  |  | 26.3 |  | 23.5 |
| UGUGUGAGACAGGAUAUGCCAGAUAUAUUACUGGUAGAAGGGUCUACAUGAGGAUCACCCAUGUGGCCGGCCGG [Ex6 #85] (Eterna round: R97, puzzle: Exclusion 6) |  |  |  | 65.3 |  | 28.5 |
| UGAGCAUGAGGAUAUACAAGGCGACCGUGAGGUCGAGGGUUACAUGAGGAUCACCCAUGUAGAAGGCAUGUUCU [jl-ex2-4.10] (Eterna round: R97, puzzle: Exclusion 2) |  |  |  | 514 |  | 48.3 |
| CCUAAGAAAGGAUAUACACCGGUGGGCCGCUGAAUUCAGCAACAUGAGGAUCACCCAUGUAGAAGGUUUAUGGG [Veteso] (Eterna round: R96, puzzle: Exclusion 2) |  |  |  | 346 | 147 | 262 |
| UGUUGUCGCGCAGGAUAUGUAUGAGGAUCACCCAUUAAUAAAUUUUAACCACGAGGAUCACCCGUGUAGAAGGGCGGGACAACA [pwkr exNG2 2xF5 1xFMN.15] (Eterna round: R96, puzzle: Exclusion NG 2) |  |  |  | 30.8 | 18.3 | 29.5 |
| CUAGUCCGAGGAUAUAUUAAGUGAAACAUGAGGAUCACCCAUGUUAUUUGAUGGAUGAAAAUAGAAGGCGGACUAG [Mat - Exclusion 5 - JL mod - D60] (puzzle: Exclusion 5) | 27.8 | 46.9 | 58.5 |  |  |  |
| UUUACAAGCUUUAGAUCCCACAUGAGGAUCACCCAUGUUGCUGCCGGUGACGGUAGCAUAACUAAUGCUCGUCUUAU [JL TOV1 3.62] (Eterna round: R97, puzzle: Sensor, turn-off variant 1) |  |  |  | 123 |  | 235 |
| GAUCCUUAAGUCAGGAUAUCAAGCAAACUCUAAAUUGAGAAGGGACAUGAGGAUCACCCAUGUCACCGAAAUAA [Zabema] (puzzle: Brourd's mod of Exclusion 4) |  | 13 |  |  |  |  |
| AACCGUGCGGAGGAUAUUGAUAUCCCAGUCUAUCAAGAAGGCUGCACAUGAGGAUCACCCAUGUGAUCCGUGCU [Riri] (Eterna round: R96, puzzle: Exclusion 6) |  |  |  | 201 | 20.7 | 25.1 |
